Values quoted from earlier work in paper PMC9594772.

Molecular target: Dll4 ECD (Rattus norvegicus) (UniProt D3ZHH1)
Sequence (D3ZHH1 28-530): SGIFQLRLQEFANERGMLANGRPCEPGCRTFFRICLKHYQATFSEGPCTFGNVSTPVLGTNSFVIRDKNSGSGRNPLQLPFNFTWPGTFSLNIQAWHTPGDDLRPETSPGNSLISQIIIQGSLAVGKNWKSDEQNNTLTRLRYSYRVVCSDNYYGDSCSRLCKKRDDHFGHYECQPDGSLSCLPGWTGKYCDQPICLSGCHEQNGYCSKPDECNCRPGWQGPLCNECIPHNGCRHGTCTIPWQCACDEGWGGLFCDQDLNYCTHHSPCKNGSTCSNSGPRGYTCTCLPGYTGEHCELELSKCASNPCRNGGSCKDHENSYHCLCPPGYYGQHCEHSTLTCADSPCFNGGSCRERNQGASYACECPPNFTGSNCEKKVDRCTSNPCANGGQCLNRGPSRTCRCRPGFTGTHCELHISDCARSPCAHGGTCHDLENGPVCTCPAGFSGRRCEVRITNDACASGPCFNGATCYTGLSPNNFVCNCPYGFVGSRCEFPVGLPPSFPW

In the case of Notch1 (from UniProt P46531), the Kd is given as 12.7 µM.
